Consider one protein from PMC9741607, “Cryo-electron tomography reveals structural insights into the membrane remodeling mode of dynamin-like EHD filaments” (Nature Communications, 2022).

This data set deals with the molecule itself. The data set is described as follows: cryo-EM structure; cryo-electron tomography and subtomogram averaging of EHD4^ΔN filaments on membrane tubes (liposomes of 50% Folch extract, 40% phosphatidylethanolamine, 10% cholesterol) with AMPPNP; pseudo-atomic model by rigid-body and flexible fitting.

B1: mouse EHD4 (residues 22-541, EHD4^ΔN) (domain or fragment, UniProt Q9EQP2 22-541, looked up)
chain: QTVTGGLRSLYQRKVLPLEEAYRFHEFHSPALEDADFENKPMILLVGQYSTGKTTFIRYLLEQDFPGMRIGPEPTTDSFIAVMYGETEGSTPGNALVVDPKKPFRKLSRFGNAFLNRFMCSQLPNQVLKSISIIDSPGILSGEKQRISRGYDFCQVLQWFAERVDRIILLFDAHKLDISDEFSEAIKAFRGQDDKIRVVLNKADQVDTQQLMRVYGALMWSLGKVINTPEVLRVYIGSFWAQPLQNTDNRRLFEAEAQDLFRDIQSLPQKAAVRKLNDLIKRARLAKVHAYIISYLKKEMPNMFGKENKKRELIYRLPEIYVQLQREYQISAGDFPEVKAMQEQLENYDFTKFHSLKPKLIEAVDNMLTNKISSLMGLISQEEMNMPTQMVQGGAFDGTTEGPFNQGYGEGAKEGADEEEWVVAKDKPVYDELFYTLSPINGKISGVNAKKEMVTSKLPNSVLGKIWKLADCDCDGMLDEEEFALAKHLIKIKLDGYELPNSLPPHLVPPSHRKSLPKAD
notes: Eps15-homology domain containing protein 4 (EHD4), mouse, amino acids 22-541; N-terminal residues deleted; The fitted model covers residues 22-535; The His6 tag was removed with PreScission protease; also called N-terminal deletion construct of mouse EHD4; EHD4/Pincher; source: E. coli BL21(DE3)-Rosetta2, purified (NiNTA, Superdex 200); not shown: His6, N-terminal, cleaved
As to B1, the binding result is reported as “binds”.
